Data as given in patent US20180346600A1.
Read-outs that look alike come from different tables or passages of the source.

Assays:
Assay in all cases: HEK293-F co-expression, Protein A purification, non-reducing SDS-PAGE densitometry
[1] = target: scFv-FcCH3A, A107 (K370E/K409W) (human) [IgG part: P0DOX5]
[2] = target: scFv-FcCH3A, A107w/oW-VT (K370E) (human) [IgG part: P0DOX5]
[3] = target: scFv-FcCH3A, A107w/oW-VT (K370E) (human) [IgG part: P0DOX5]; remark: listed apart in the source
[4] = target: scFv-FcCH3A, A109 (K370M/K409W) (human) [IgG part: P0DOX5]
[5] = target: scFv-FcCH3A, A109w/oW-VT (K370M) (human) [IgG part: P0DOX5]
[6] = target: scFv-FcCH3A, A146w/oW-VT (K370D) (human) [IgG part: P0DOX5]
[7] = target: scFv-FcCH3A, A205 (E357D/S364W/K370E) (human) [IgG part: P0DOX5]
[8] = target: scFv-FcCH3A, A210 (E357A/S364Y/K370E) (human) [IgG part: P0DOX5]
[9] = target: scFv-FcCH3A, A216 (E357G/S364W/K370E) (human) [IgG part: P0DOX5]
[10] = target: scFv-FcCH3A, A241 (E357N/S364W/K370E) (human) [IgG part: P0DOX5]
[11] = target: scFv-FcCH3A, B121 (D399E/K409W) (human) [IgG part: P0DOX5]
[12] = target: scFv-FcCH3A, B135 (D399L/K409W) (human) [IgG part: P0DOX5]
[13] = target: scFv-FcCH3A, B168 (D399L/K409W) (human) [IgG part: P0DOX5]
[14] = target: scFv-FcCH3A, B168w/oW-VT (D399L) (human) [IgG part: P0DOX5]
[15] = target: scFv-FcCH3A, B168w/oW-VT (D399L) (human) [IgG part: P0DOX5]; remark: listed apart in the source
[16] = target: scFv-FcCH3A, B212 (K392I/D399L) (human) [IgG part: P0DOX5]
[17] = target: scFv-FcCH3A, B215 (K392R/K409R/D399L) (human) [IgG part: P0DOX5]
[18] = target: scFv-FcCH3A, B235 (K392C/D399L) (human) [IgG part: P0DOX5]
[19] = target: scFv-FcCH3A, B239 (K392L/D399L) (human) [IgG part: P0DOX5]
[20] = target: scFv-FcCH3A, B240 (K392S/K409R/D399L) (human) [IgG part: P0DOX5]
[21] = target: scFv-FcCH3A, B256 (K392N/D399L) (human) [IgG part: P0DOX5]
[22] = target: scFv-FcCH3A, EW-RVT (K360E/K409W) (human)
[23] = target: scFv-FcCH3A, EW-RVT (K360E/K409W) (human); remark: listed apart in the source
[24] = target: scFv-FcCH3A, W-VT (K409W) (human) [IgG part: P0DOX5]

Q: For “scFv-FcCH3A, A107 (K370E/K409W) (from UniProt P0DOX5 227-449) (Fc fusion)”, which (scFv-Fc)2 (homodimer)(%) [1] is on record?
A: Its (scFv-Fc)2 (homodimer)(%) is 4.2%.

Q: Which (scFv-Fc)2 (homodimer)(%) [2] does the source give for “scFv-FcCH3A, A107w/oW-VT (K370E) (from UniProt P0DOX5 227-449) (Fc fusion)” here?
A: Its (scFv-Fc)2 (homodimer)(%) is 21.3%.

Q: What about the (scFv-Fc)2 (homodimer)(%) [3] of the same substance?
A: The (scFv-Fc)2 (homodimer)(%) was 21.3%.

Q: For “scFv-FcCH3A, A109 (K370M/K409W) (from UniProt P0DOX5 227-449) (Fc fusion)”, which (scFv-Fc)2 (homodimer)(%) [4] is on record?
A: Its (scFv-Fc)2 (homodimer)(%) is 0.5%.

Q: For “scFv-FcCH3A, A109w/oW-VT (K370M) (from UniProt P0DOX5 227-449) (Fc fusion)”, which (scFv-Fc)2 (homodimer)(%) [5] is on record?
A: Its (scFv-Fc)2 (homodimer)(%) is 5.6%.

Q: How did the (scFv-Fc)2 (homodimer)(%) [6] turn out when “scFv-FcCH3A, A146w/oW-VT (K370D) (from UniProt P0DOX5 227-449) (Fc fusion)” was run?
A: The (scFv-Fc)2 (homodimer)(%) was 4.6%.

Q: How did the (scFv-Fc)2 (homodimer)(%) [7] turn out when “scFv-FcCH3A, A205 (E357D/S364W/K370E) (from UniProt P0DOX5 227-449) (Fc fusion)” was run?
A: Its (scFv-Fc)2 (homodimer)(%) is 1%.

Q: Which (scFv-Fc)2 (homodimer)(%) [8] does the source give for “scFv-FcCH3A, A210 (E357A/S364Y/K370E) (from UniProt P0DOX5 227-449) (Fc fusion)” here?
A: The (scFv-Fc)2 (homodimer)(%) was 9.9%.

Q: How did the (scFv-Fc)2 (homodimer)(%) [9] turn out when “scFv-FcCH3A, A216 (E357G/S364W/K370E) (from UniProt P0DOX5 227-449) (Fc fusion)” was run?
A: Its (scFv-Fc)2 (homodimer)(%) is 1.5%.

Q: “scFv-FcCH3A, A241 (E357N/S364W/K370E) (from UniProt P0DOX5 227-449) (Fc fusion)” was tested. Which (scFv-Fc)2 (homodimer)(%) [10] did it give?
A: The (scFv-Fc)2 (homodimer)(%) was 15.7%.

Q: “scFv-FcCH3A, B121 (D399E/K409W) (from UniProt P0DOX5 227-449) (Fc fusion)” was tested. Which (scFv-Fc)2 (homodimer)(%) [11] did it give?
A: The (scFv-Fc)2 (homodimer)(%) was 1.5%.

Q: For “scFv-FcCH3A, B135 (D399L/K409W) (from UniProt P0DOX5 227-449) (Fc fusion)”, which (scFv-Fc)2 (homodimer)(%) [12] is on record?
A: The (scFv-Fc)2 (homodimer)(%) was 4.1%.

Q: For “scFv-FcCH3A, B168 (D399L/K409W) (from UniProt P0DOX5 227-449) (Fc fusion)”, which (scFv-Fc)2 (homodimer)(%) [13] is on record?
A: Its (scFv-Fc)2 (homodimer)(%) is 1.2%.

Q: “scFv-FcCH3A, B168w/oW-VT (D399L) (from UniProt P0DOX5 227-449) (Fc fusion)” was tested. Which (scFv-Fc)2 (homodimer)(%) [14] did it give?
A: Its (scFv-Fc)2 (homodimer)(%) is 1.5%.

Q: And the (scFv-Fc)2 (homodimer)(%) [15]?
A: The (scFv-Fc)2 (homodimer)(%) was 1.6%.

Q: “scFv-FcCH3A, B212 (K392I/D399L) (from UniProt P0DOX5 227-449) (Fc fusion)” was tested. Which (scFv-Fc)2 (homodimer)(%) [16] did it give?
A: The (scFv-Fc)2 (homodimer)(%) was 0.9%.

Q: With “scFv-FcCH3A, B215 (K392R/K409R/D399L) (from UniProt P0DOX5 227-449) (Fc fusion)” as the substance, how does the (scFv-Fc)2 (homodimer)(%) [17] read?
A: The (scFv-Fc)2 (homodimer)(%) was 1.9%.

Q: How did the (scFv-Fc)2 (homodimer)(%) [18] turn out when “scFv-FcCH3A, B235 (K392C/D399L) (from UniProt P0DOX5 227-449) (Fc fusion)” was run?
A: The (scFv-Fc)2 (homodimer)(%) was 3.7%.

Q: How did the (scFv-Fc)2 (homodimer)(%) [19] turn out when “scFv-FcCH3A, B239 (K392L/D399L) (from UniProt P0DOX5 227-449) (Fc fusion)” was run?
A: The (scFv-Fc)2 (homodimer)(%) was 3.4%.

Q: Which (scFv-Fc)2 (homodimer)(%) [20] does the source give for “scFv-FcCH3A, B240 (K392S/K409R/D399L) (from UniProt P0DOX5 227-449) (Fc fusion)” here?
A: Its (scFv-Fc)2 (homodimer)(%) is 4.8%.

Q: For “scFv-FcCH3A, B256 (K392N/D399L) (from UniProt P0DOX5 227-449) (Fc fusion)”, which (scFv-Fc)2 (homodimer)(%) [21] is on record?
A: The (scFv-Fc)2 (homodimer)(%) was 3.9%.

Q: Which (scFv-Fc)2 (homodimer)(%) [22] does the source give for “scFv-FcCH3A, EW-RVT (K360E/K409W) (Fc fusion)” here?
A: The (scFv-Fc)2 (homodimer)(%) was 0.5%.

Q: And the (scFv-Fc)2 (homodimer)(%) [23]?
A: The (scFv-Fc)2 (homodimer)(%) was 0.5%.

Q: For “scFv-FcCH3A, W-VT (K409W) (from UniProt P0DOX5 227-449) (Fc fusion)”, which (scFv-Fc)2 (homodimer)(%) [24] is on record?
A: Its (scFv-Fc)2 (homodimer)(%) is 1.4%.
